Experimental data as given in patent publication US20220242950A1 (CANTARGIA, published 2022).
Changes are numbered by the printed parent chain. Like-named read-outs stand apart in the source and are kept apart here.

Assays:
[1] = target: T1, recombinant mf IL1RAP aa21-367 (cynomolgus monkey (Macaca fascicularis), UniProt A0A2K5X5J5 21-367); experiment: binding ELISA, coated recombinant mf IL1RAP aa21-367
T1 construct: also called cynomolgus monkey IL1RAP; cyno IL1RAP
T1 sequence: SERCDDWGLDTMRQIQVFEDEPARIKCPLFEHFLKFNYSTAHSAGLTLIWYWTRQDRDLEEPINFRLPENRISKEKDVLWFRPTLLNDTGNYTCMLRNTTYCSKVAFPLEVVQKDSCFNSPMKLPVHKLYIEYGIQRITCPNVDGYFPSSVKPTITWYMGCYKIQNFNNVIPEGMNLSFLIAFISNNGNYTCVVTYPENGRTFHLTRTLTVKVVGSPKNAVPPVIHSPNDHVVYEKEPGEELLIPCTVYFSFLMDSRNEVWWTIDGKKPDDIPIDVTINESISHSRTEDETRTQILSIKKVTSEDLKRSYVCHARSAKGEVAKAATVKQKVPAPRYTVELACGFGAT

[2] = target: T2, recombinant hIL1RAP Domain1+2+3 (aa21-367) (human, UniProt Q9NPH3 21-367); experiment: bio-layer interferometry, human IL1RAP
T2 construct: Numbering on Uniprot Q9NPH3
T2 sequence (looked up): T1 sequence with F183L, P273T, T326K
In short: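 Antibodies at 10 μg/ml were loaded onto Protein A biosensors for 30 min at room temperature in PBS/0.5% BSA/0.05% Tween 20, pH 7.4. After a 30 sec baseline, association with hIL1RAP ran 120 sec, then 120 sec dissociation in buffer; KD from basic kinetics fitting.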

[3] = target: T3, human IL1RAP on the cell surface (human, UniProt Q9NPH3 21-570); experiment: cell-based or functional assay
T3 sequence (looked up): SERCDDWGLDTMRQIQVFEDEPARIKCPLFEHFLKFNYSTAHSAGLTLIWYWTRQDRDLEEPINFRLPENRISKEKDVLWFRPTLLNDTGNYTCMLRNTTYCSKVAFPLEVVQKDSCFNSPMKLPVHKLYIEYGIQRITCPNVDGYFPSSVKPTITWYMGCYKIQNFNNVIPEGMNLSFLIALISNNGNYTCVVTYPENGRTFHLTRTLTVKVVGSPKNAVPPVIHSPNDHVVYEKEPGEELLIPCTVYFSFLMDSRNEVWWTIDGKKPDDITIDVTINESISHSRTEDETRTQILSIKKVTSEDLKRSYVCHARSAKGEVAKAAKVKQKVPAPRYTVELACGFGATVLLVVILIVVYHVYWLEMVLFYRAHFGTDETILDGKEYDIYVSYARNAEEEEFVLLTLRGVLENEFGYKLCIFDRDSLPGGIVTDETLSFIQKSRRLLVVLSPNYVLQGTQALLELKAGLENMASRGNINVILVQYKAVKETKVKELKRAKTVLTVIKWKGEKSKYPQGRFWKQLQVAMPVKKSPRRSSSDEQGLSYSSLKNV

[4] = target: T2, recombinant hIL1RAP Domain1+2+3 …; experiment: binding ELISA, coated recombinant hIL1RAP aa21-367
[5] = target: T2, recombinant hIL1RAP Domain1+2+3 …; experiment: BLI (BLItz), antibody on Protein A biosensor, hIL1RAP (21-367) in solution
Method: (§1) Affinity measurements were done on BLItz™ Label-Free Protein Analysis System from ForteBio, using the Basic Kinetics module in the BLItz Pro 1.3.1.3 software from Molecular Devices. Protein A biosensors were hydrated in blocking buffer (PBS, 0.5% BSA, 0.05% Tween 20, pH 7.4) for minimum 10 min at room temperature before coating. Protein A biosensors were coated with antibodies by dipping the biosensors in 200 μl of antibody solution (10 μg/ml in blocking buffer) for 30 min at room temperature. The sensors were then incubated in 200 μl blocking buffer for at least 10 min before use. […] The baseline was made in blocking buffer with a duration time of 30 sec. Association was made for 120 sec in hIL1RAP followed by 120 sec dissociation in blocking buffer.
Affinity measurement results are shown in Table 4 for chimeric 48D2, as well as for humanized 48D2 variant VH5:VL4 (see Example 11) and for humanized and de-immunized 48D2 variant VH5.GL:VL4 (see Example 13). kₐ is the association rate constant, for characterization of the antibody binding to the target, kd is the dissociation rate constant, for characterization of the antibody dissociation from the target, and KD is the equilibrium dissociation constant between the antibody and its antigen, the ratio of kd/kₐ. […] The lower the KD value (lower concentration), the higher the affinity.

[6] = target: T3, human IL1RAP on the cell surface; experiment: cell-based or functional assay; remark: listed apart in the source
[7] = target: T2, recombinant hIL1RAP Domain1+2+3 …; experiment: bio-layer interferometry, human IL1RAP; remark: listed apart in the source
Method: as §1
KD values for affinity towards human IL1RAP are shown in Table 17 for the de-immunized h48D2 variants. Affinity was measured using bio-layer interferometry. […] See also Table 4 for a direct comparison of 48D2, humanized 48D2, and de-immunized h48D2.

rat IL1RAP = target: T4, rat IL1RAP (rat (Rattus norvegicus), UniProt Q63621 21-367, limits assumed); experiment: indirect ELISA on coated IL1RAP, goat anti-human antibody-alkaline phosphatase, absorbance at 405 nm
T4 construct: also called rnIL1RAP
T4 sequence (looked up): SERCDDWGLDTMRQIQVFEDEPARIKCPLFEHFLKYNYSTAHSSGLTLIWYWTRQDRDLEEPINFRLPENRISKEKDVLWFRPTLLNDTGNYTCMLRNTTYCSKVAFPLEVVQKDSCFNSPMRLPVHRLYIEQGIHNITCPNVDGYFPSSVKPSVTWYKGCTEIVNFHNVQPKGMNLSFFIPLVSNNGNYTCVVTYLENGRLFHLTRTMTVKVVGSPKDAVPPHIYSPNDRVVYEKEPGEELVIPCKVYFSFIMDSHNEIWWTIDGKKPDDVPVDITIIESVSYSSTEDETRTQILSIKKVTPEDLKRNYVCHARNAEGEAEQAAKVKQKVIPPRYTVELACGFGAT
Method: (§2) Microtiter plate wells were coated with IL1RAP orthologs (Mus musculus, Rattus norvegicus, Macaca fascicularis (Mf, synonymous to cynomolgus monkey), Oryctolagus cuniculus, Canis lupus familiaris, Sus scrofa) and incubated for 1 hour at 37° C. Plates were washed followed by a blocking step. After 1 hour incubation at room temperature on agitation, the plates were washed again. The antibody was diluted in fourfold serial dilution, ranging from 4000 ng/ml to 0.24 ng/ml, in ELISA blocking solution, and then transferred to the ELISA plate. Plates were incubated at 37° C. in 30 min on agitation and then washed. Goat Anti-Human antibody conjugated to Alkaline Phosphatase was added and incubated 30 min at 37° C. on agitation. The plates were washed followed by addition of substrate (4-Nitrophenyl phosphate disodium salt hexahydrate). The plates were thereafter incubated at room temperature on agitation and absorbance at 405 nm measured consecutively for 50 min. Absorbance at 0 min was taken as background signal.
(§3) The antibody is added in increasing concentrations and absorbance at 405 nm is used to detect binding to IL1RAP. As for chimeric 48D2, the humanized and de-immunized variants h48D2 VH5.GL:VL4 and h48D2 VH5.GL:VL5.GL were cross reactive to IL1RAP from cynomolgus monkey (cyno) and pig, but have no cross reactivity to IL1RAP from mouse, rat, rabbit or dog (FIG. 18 and Table 20).

mouse IL1RAP = target: T5, mouse IL1RAP (mouse (Mus musculus), UniProt Q61730 21-367, limits assumed); experiment: as above
T5 construct: Coated ortholog in the cross reactivity ELISA; also called mIL1RAP; murine IL1RAP
T5 sequence (looked up): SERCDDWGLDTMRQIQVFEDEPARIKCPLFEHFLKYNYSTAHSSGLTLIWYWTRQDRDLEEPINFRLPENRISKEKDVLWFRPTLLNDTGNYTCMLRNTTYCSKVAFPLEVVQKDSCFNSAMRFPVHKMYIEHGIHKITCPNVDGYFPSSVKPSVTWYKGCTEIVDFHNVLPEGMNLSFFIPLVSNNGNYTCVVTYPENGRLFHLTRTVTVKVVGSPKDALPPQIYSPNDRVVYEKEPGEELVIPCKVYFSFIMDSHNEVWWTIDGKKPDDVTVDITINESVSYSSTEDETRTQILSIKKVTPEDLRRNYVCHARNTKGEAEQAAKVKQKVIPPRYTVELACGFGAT
Method: as §2, §3

B1: h48D2 VH5:VL4 (antibody, human IgG1, kappa, L234A L235A, V domains shown)
VH: QEQLEESGGGLVKPGGTLSLTCTVSGPSLSHFDITWIRQAPGSGLEWIGTISPGVSTYYASWAKSRVTISVDTSLNTVSLKLSSVTAADTATYFCARGGVGSSWKAFDLWGPGTLVTISS
VL: ELVMTQSPSSVSASVGDRVTITCQASESISTALAWYQQKPGKAPKLLIYKASTLPSGVPSRFSGSGSGTDFTLTINSLQPEDFATYYCQQGFSSGNVHNAFGGGTKVEIKR
notes: Humanized; also called VL4:VH5; humanized 48D2 variant VH5:VL4
IC50 [1]: 0.028 µg/mL
Kd [2]: 1.67 nM
IC50 of IL-1α signaling (HEK-Blue assay) [3]: 6.47 nM
IC50 of IL-33 signaling (HEK-Blue assay) [3]: 2 nM
IC50 of IL-36α signaling (HEK-Blue assay) [3]: ~0.0025 nM
IC50 of IL-36β signaling (HEK-Blue assay) [3]: ~0.342 nM
IC50 of IL-36γ signaling (HEK-Blue assay) [3]: 2.83 nM
IC50 [4]: 0.0258 µg/mL
Kd [5]: 2.74 nM
koff [5]: 0.000172 s⁻¹
kon [5]: 60200 M⁻¹ s⁻¹

B2: h48D2 VH5.SK:VL5.GL (antibody, human IgG1, kappa, L234A L235A)
heavy: not shown
light: DIQMTQSPSTLSASVGDRVTITCQASESISTALAWYQQKPGQPPKLLIYKASTLPSGVPSRFSGSGSGTEFTLTISDLESDDAATYYCQQGFSSGNVHNAFGGGTEVVVKRTVAAPSVFIFPPSDEQLKSGTASVVCLLNNFYPREAKVQWKVDNALQSGNSQESVTEQDSKDSTYSLSSTLTLSKADYEKHKVYACEVTHQGLSSPVTKSFNRGEC
notes: Humanized and de-immunized; also called VL5.GL:VH5.SK
IC50 of IL-1α signaling (HEK-Blue assay) [6]: 0.321 nM
IC50 of IL-1β signaling (HEK-Blue assay) [6]: 0.117 nM
IC50 of IL-33 signaling (HEK-Blue assay) [6]: 3.11 nM
IC50 of IL-36α signaling (HEK-Blue assay) [6]: 0.204 nM
IC50 of IL-36β signaling (HEK-Blue assay) [6]: 0.16 nM
IC50 of IL-36γ signaling (HEK-Blue assay) [6]: 0.245 nM
Kd [7]: 2.28 nM

B3: h48D2 VH5.GL:VL5 (antibody, human IgG1, kappa, L234A L235A)
heavy: not shown
light: B2 light with D1A, I2P, Q3V, M4L, S9A, S12E
notes: Humanized and de-immunized; also called VL5:VH5.GL
IC50 of IL-1α signaling (HEK-Blue assay) [6]: 0.214 nM
IC50 of IL-1β signaling (HEK-Blue assay) [6]: 0.0999 nM
IC50 of IL-33 signaling (HEK-Blue assay) [6]: 2.46 nM
IC50 of IL-36α signaling (HEK-Blue assay) [6]: 0.128 nM
IC50 of IL-36β signaling (HEK-Blue assay) [6]: 0.135 nM
IC50 of IL-36γ signaling (HEK-Blue assay) [6]: 0.129 nM
Kd [7]: 1.87 nM

B4: h48D2 VH5.GL:VL5.GL (antibody, human IgG1, kappa, L234A L235A)
heavy: not shown
light: B2 light
notes: Humanized and de-immunized; also called VL5.GL:VH5.GL
IC50 of IL-1α signaling (HEK-Blue assay) [6]: 0.24 nM
IC50 of IL-1β signaling (HEK-Blue assay) [6]: 0.13 nM
IC50 of IL-33 signaling (HEK-Blue assay) [6]: 3.56 nM
IC50 of IL-36α signaling (HEK-Blue assay) [6]: 0.174 nM
IC50 of IL-36β signaling (HEK-Blue assay) [6]: 0.185 nM
IC50 of IL-36γ signaling (HEK-Blue assay) [6]: 0.244 nM
Kd [7]: 1.47 nM
binding result (rat IL1RAP): no binding (tested: 4000 ng/mL)
binding result (mouse IL1RAP): no binding (tested: 4000 ng/mL)
